{"source": "paper PMC10269845", "about": "“Hijacking of Host Plasminogen by Mesomycoplasma (Mycoplasma) hyopneumoniae via GAPDH: an Important Virulence Mechanism To Promote Adhesion and Extracellular Matrix Degradation” (Microbiology Spectrum, 2023)", "binders": {"B1": {"name": "Recombinant glyceraldehyde-3-phosphate dehydrogenase (GAPDH) of Mesomycoplasma (Mycoplasma) hyopneumoniae strain 168 (enzyme)", "chain": "MKKIAINGFGRIGRLALRRLFEVNDENLQVVAINDLTDASVLAHLFKYDSAHGKFNGEVEVLKDNGKNYLKIKGQKILVLSERDPKSLPWGQLGIDLVVECTGFFASKSGASQHLEAGAKKVIISAPAGNDVKTIVYNVNCDTITEDDRILSSASCTTNALAPLVNALDKEFGINHGFMTTIHAYTADQRLQDAPHGDLRRARAAGVNLVPSSTGAAKAIGLVVPSLTGKLDGIAIRVPVITGSFVDLSVELKSNPSIEEINQKMREYANESFAYCDEPIVSSDIIGDRHGSIFDATLTKYIEANGKRLYKLYTWYDNEYSFVSQFVRVIRDFVQK", "notes": "also called rGAPDH; source: E. coli BL21(DE3), pET-32a, purified (Ni resin FF)"}}, "target": "plasminogen (UniProt P00747 20-810)", "sequence (P00747 20-810)": "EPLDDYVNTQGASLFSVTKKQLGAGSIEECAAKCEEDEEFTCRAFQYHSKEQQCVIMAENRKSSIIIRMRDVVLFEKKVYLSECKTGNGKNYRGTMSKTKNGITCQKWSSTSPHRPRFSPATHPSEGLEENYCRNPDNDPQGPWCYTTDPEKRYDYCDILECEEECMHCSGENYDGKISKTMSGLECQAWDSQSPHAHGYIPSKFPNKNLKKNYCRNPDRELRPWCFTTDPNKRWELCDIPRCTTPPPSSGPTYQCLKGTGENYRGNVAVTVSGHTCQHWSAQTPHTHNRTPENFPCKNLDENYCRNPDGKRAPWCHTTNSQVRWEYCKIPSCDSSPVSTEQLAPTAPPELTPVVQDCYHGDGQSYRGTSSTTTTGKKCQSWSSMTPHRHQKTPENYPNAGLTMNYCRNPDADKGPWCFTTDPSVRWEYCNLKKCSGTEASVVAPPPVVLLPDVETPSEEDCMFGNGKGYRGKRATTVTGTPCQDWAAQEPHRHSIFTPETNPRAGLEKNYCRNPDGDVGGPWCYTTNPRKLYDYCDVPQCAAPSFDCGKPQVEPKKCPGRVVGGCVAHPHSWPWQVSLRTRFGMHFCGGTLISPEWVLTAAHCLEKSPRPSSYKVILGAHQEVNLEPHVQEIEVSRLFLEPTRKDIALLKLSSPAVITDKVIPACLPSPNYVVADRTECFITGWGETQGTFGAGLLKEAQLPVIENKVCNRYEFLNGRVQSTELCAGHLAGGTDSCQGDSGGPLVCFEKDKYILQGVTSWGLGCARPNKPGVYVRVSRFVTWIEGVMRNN", "assay": "SPR", "settings": "both partners purified"}
{"binder": "B1", "values": [{"measurement": "Kd", "value": 376, "unit": "nM"}]}
